Experimental data from article PMC12212138, “Crystal structure and mutagenesis of a nucleic acid–binding BRCT domain in human PARP4”.

Experiments:
[1] = target: T1, PARP4 BRCT WT (human, UniProt Q9UKK3 1-100); experiment: FP; 3 nM probe; FP: 50 mM Tris pH 7.5, 50 mM NaCl, 1 mM MgCl2, 0.05% NP40, 2 mM DTT, 5% glycerol, 25 ug/ml BSA, room temp 30 min; EMSA: 50 mM Tris pH 7.5, 50 mM NaCl, 4% Ficoll PM400, 0.05% NP40, 2 mM DTT, 0-18 uM protein, room temp 30 min, gel at 4 C; conditions: protein: recombinant; tags: N-terminal His-SUMO removed by TEV; label: 5'-6-FAM; predicted intramolecular fold
T1 sequence: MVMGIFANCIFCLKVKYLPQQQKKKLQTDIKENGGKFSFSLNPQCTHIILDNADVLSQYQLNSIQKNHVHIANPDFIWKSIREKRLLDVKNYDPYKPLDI

[2] = target: T2, PARP4 BRCT-WGR-CAT WT (human, UniProt Q9UKK3 1-573); experiment: FP; 15 nM probe; FP: 50 mM Tris pH 7.5, 50 mM NaCl, 1 mM MgCl2, 0.05% NP40, 2 mM DTT, 5% glycerol, 25 ug/ml BSA, room temp 30 min; EMSA: 50 mM Tris pH 7.5, 50 mM NaCl, 4% Ficoll PM400, 0.05% NP40, 2 mM DTT, 0-18 uM protein, room temp 30 min, gel at 4 C; conditions: protein: recombinant, tags: N-terminal His-SUMO removed by TEV
T2 sequence: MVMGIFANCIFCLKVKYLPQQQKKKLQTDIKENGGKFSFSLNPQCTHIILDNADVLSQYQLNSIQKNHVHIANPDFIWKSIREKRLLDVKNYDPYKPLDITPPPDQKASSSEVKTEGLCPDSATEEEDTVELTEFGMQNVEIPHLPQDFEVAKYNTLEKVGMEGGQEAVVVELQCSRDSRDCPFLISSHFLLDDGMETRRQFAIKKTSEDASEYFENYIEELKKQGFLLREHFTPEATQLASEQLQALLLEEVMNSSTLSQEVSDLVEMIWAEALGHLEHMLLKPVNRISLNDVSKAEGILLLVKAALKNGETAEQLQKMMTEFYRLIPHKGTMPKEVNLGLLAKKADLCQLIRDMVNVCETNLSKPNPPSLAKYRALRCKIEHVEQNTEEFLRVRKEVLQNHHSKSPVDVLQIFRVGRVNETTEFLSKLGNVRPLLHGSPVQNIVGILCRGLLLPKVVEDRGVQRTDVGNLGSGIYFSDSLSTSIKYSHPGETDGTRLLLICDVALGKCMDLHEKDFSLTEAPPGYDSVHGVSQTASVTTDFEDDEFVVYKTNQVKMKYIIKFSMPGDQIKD

[3] = target: T2, PARP4 BRCT-WGR-CAT WT; experiment: EMSA; 20 nM probe; FP: 50 mM Tris pH 7.5, 50 mM NaCl, 1 mM MgCl2, 0.05% NP40, 2 mM DTT, 5% glycerol, 25 ug/ml BSA, room temp 30 min; EMSA: 50 mM Tris pH 7.5, 50 mM NaCl, 4% Ficoll PM400, 0.05% NP40, 2 mM DTT, 0-18 uM protein, room temp 30 min, gel at 4 C; conditions: protein: recombinant; tags: N-terminal His-SUMO removed by TEV; label: 5'-6-FAM; single strand, predicted fold

B1: vtRNA1-1 (structured_RNA)
RNA: GGCUGGCUUUAGCUCAGCGGUUACUUCGACAGUUCUUUAAUUGAAACAAGCAACCUGUCUGGGUUGUUCGAGACCCGCGGGCGCUCUCCAGUCCUUUU
- Kd [1]: 13 ± 4 µM

Binder: GUCAUCAAACCACCUCUCUGGGUUGUUCGAGAC (structured_RNA) [Probe 2]
- Kd ([2]; label: 5'-6-FAM, single strand, predicted fold): 44 ± 13 µM
- Kd [3]: 11 ± 3 µM

B2: Probe 1 (dsRNA)
RNA 1: GGCUGGCUUUAGCUCAGCGG
RNA 2: CCGCGGGCGCUCUCCAGCCCUCUU
- Kd ([2]; label: 5'-6-FAM on strand 1, two-strand partial duplex): 25 ± 10 µM

B3: vtRNA1-2 (structured_RNA)
RNA: GGCUGGCUUUAGCUCAGCGGUUACUUCGAGUACAUUGUAACCACCUCUCUGGGUGGUUCGAGACCCGCGGGUGCUUUCCAGCUCUUUU
- Kd [1]: 20 ± 5 µM
